Experimental data reported in IntAct's records for PubMed 29892012.

B1: Abl interactor 2 (Homo sapiens), Q9NYB9 (parent)
chain: MAELQMLLEEEIPGGRRALFDSYTNLERVADYCENNYIQSADKQRALEETKAYTTQSLASVAYLINTLANNVLQMLDIQASQLRRMESSINHISQTVDIHKEKVARREIGILTTNKNTSRTHKIIAPANLERPVRYIRKPIDYTILDDIGHGVKWLLRFKVSTQNMKMGGLPRTTPPTQKPPSPPMSGKGTLGRHSPYRTLEPVRPPVVPNDYVPSPTRNMAPSQQSPVRTASVNQRNRTYSSSGSSGGSHPSSRSSSRENSGSGSVGVPIAVPTPSPPSVFPAPAGSAGTPPLPATSASAPAPLVPATVPSSTAPNAAAGGAPNLADGFTSPTPPVVSSTPPTGHPVQFYSMNRPASRHTPPTIGGSLPYRRPPSITSQTSLQNQMNGGPFYSQNPVSDTPPPPPPVEEPVFDESPPPPPPPEDYEEEEAAVVEYSDPYAEEDPPWAPRSYLEKVVAIYDYTKDKEDELSFQEGAIIYVIKKNDDGWYEGVMNGVTGLFPGNYVESIMHYSE
partner: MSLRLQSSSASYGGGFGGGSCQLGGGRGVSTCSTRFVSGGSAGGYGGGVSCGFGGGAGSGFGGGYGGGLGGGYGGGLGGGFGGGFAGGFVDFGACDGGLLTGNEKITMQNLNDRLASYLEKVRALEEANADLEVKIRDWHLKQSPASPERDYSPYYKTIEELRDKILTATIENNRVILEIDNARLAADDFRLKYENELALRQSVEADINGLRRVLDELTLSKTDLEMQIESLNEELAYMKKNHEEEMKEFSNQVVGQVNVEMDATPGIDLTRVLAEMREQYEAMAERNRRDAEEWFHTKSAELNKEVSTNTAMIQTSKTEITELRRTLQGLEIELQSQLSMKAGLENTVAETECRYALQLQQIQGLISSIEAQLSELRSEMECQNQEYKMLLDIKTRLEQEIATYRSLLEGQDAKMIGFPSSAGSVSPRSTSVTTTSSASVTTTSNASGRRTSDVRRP
B2: Atypical chemokine receptor 2 (Homo sapiens), O00590 (parent)
chain: MAATASPQPLATEDADSENSSFYYYDYLDEVAFMLCRKDAVVSFGKVFLPVFYSLIFVLGLSGNLLLLMVLLRYVPRRRMVEIYLLNLAISNLLFLVTLPFWGISVAWHWVFGSFLCKMVSTLYTINFYSGIFFISCMSLDKYLEIVHAQPYHRLRTRAKSLLLATIVWAVSLAVSIPDMVFVQTHENPKGVWNCHADFGGHGTIWKLFLRFQQNLLGFLLPLLAMIFFYSRIGCVLVRLRPAGQGRALKIAAALVVAFFVLWFPYNLTLFLHTLLDLQVFGNCEVSQHLDYALQVTESIAFLHCCFSPILYAFSSHRFRQYLKAFLAAVLGWHLAPGTAQASLSSCSESSILTAQEEMTGMNDLGERQSENYPNKEDVGNKSA
B3: Abl interactor 2 (Homo sapiens), Q9NYB9 (parent)
chain: B1 chain
partner: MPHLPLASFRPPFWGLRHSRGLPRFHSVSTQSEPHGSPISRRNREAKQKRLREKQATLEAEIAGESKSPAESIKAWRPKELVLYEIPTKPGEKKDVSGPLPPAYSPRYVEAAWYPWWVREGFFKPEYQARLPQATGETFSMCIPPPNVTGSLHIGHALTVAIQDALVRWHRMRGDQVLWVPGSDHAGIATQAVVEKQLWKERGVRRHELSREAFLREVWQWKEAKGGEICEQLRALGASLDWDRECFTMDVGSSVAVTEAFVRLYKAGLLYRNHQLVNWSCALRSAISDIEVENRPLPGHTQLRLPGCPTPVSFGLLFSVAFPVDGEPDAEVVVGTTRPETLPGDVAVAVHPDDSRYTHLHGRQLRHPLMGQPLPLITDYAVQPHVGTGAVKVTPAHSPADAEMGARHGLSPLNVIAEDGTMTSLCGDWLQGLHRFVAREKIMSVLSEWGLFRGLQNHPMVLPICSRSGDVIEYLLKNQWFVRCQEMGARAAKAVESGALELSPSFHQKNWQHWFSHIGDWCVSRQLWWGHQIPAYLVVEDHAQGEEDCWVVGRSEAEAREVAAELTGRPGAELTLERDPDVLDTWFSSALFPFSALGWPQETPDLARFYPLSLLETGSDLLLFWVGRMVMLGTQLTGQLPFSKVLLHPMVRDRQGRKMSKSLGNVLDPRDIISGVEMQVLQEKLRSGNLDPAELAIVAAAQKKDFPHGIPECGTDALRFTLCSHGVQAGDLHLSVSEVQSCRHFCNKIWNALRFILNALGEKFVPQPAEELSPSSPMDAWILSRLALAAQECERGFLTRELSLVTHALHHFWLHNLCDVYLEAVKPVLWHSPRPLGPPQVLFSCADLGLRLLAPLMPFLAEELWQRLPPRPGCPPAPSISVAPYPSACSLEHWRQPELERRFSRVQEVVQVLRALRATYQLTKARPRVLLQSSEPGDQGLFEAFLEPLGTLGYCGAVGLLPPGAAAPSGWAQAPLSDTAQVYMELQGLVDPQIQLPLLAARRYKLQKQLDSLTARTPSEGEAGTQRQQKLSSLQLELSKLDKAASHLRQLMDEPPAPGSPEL
B4: Coiled-coil domain-containing protein 14 (Homo sapiens), Q49A88 (parent)
chain: MKRGIRRDPFRKRKLGGRAKKVREPTAVNSFYREASLPSVWASLRRREMVRSGARPGQVLSSGRHTGPAKLTNGKKATYLRKIPRFNADSGYSIHSDSESQAETVHGLDGCASLLRDILRNEDSGSETAYLENRSNSRPLESKRYGSKKKRHEKHTIPLVVQKETSSSDNKKQIPNEASARSERDTSDLEQNWSLQDHYRMYSPIIYQALCEHVQTQMSLMNDLTSKNIPNGIPAVPCHAPSHSESQATPHSSYGLCTSTPVWSLQRPPCPPKVHSEVQTDGNSQFASQGKTVSATCTDVLRNSFNTSPGVPCSLPKTDISAIPTLQQLGLVNGILPQQGIHKETDLLKCIQTYLSLFRSHGKETHLDSQTHRSPTQSQPAFLATNEEKCAREQIREATSERKDLNIHVRDTKTVKDVQKAKNVNKTAEKVRIIKYLLGELKALVAEQEDSEIQRLITEMEACISVLPTVSGNTDIQVEIALAMQPLRSENAQLRRQLRILNQQLREQQKTQKPSGAVDCNLELFSLQSLNMSLQNQLEESLKSQELLQSKNEELLKVIENQKDENKKFSSIFKDKDQTILENKQQYDIEITRIKIELEEALVNVKSSQFKLETAEKENQILGITLRQRDAEVTRLRELTRTLQTSMAKLLSDLSVDSARCKPGNNLTKSLLNIHDKQLQHDPAPAHTSIMSYLNKLETNYSFTHSEPLSTIKNEETIEPDKTYENVLSSRGPQNSNTRGMEEASAPGIISALSKQDSDEGSETMALIEDEHNLDNTIYIPFARSTPEKKSPLSKRLSPQPQIRAATTQLVSNSGLAVSGKENKLCTPVICSSSTKEAEDAPEKLSRASDMKDTQLLKKIKEAIGKIPAATKEPEEQTACHGPSGCLSNSLQVKGNTVCDGSVFTSDLMSDWSISSFSTFTSRDEQDFRNGLAALDANIARLQKSLRTGLLEK
partner: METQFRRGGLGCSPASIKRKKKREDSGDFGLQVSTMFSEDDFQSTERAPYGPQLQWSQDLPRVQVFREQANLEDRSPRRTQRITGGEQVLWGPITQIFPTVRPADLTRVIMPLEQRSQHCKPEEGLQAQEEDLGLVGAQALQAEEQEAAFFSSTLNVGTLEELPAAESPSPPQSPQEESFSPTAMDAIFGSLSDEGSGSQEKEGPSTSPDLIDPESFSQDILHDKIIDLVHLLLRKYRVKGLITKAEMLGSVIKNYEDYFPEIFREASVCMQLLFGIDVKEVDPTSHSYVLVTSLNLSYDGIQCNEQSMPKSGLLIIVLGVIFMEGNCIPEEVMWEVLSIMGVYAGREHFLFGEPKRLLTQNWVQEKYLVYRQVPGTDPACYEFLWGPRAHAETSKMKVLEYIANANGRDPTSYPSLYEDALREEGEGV
B5: Abl interactor 2 (Homo sapiens), Q9NYB9 (parent)
chain: B1 chain
partner: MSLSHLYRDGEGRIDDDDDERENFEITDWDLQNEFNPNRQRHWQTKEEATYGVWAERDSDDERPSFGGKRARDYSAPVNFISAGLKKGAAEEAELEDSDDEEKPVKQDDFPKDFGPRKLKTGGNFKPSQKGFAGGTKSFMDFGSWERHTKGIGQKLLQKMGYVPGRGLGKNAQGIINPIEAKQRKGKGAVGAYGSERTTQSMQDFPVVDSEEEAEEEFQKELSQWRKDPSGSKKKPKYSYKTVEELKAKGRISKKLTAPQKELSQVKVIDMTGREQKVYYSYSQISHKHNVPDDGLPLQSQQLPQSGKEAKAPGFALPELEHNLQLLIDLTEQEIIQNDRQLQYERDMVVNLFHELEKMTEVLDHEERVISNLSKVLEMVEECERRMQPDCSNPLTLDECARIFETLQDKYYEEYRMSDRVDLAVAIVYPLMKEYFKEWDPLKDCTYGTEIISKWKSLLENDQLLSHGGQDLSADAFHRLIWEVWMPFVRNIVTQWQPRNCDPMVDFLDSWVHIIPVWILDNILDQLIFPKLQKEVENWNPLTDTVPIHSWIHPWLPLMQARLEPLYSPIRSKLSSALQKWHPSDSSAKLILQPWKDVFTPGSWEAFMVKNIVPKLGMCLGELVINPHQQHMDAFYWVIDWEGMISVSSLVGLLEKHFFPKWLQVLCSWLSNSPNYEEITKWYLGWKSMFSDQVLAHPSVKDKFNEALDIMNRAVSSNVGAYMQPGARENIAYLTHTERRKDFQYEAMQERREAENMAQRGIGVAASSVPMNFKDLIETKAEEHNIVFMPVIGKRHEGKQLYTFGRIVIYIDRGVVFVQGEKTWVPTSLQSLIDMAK
B6: Rho guanine nucleotide exchange factor 3 (Homo sapiens), Q9NR81 (parent)
chain: MVAKDYPFYLTVKRANCSLELPPASGPAKDAEEPSNKRVKPLSRVTSLANLIPPVKATPLKRFSQTLQRSISFRSESRPDILAPRPWSRNAAPSSTKRRDSKLWSETFDVCVNQMLTSKEIKRQEAIFELSQGEEDLIEDLKLAKKAYHDPMLKLSIMTEQELNQIFGTLDSLIPLHEELLSQLRDVRKPDGSTEHVGPILVGWLPCLSSYDSYCSNQVAAKALLDHKKQDHRVQDFLQRCLESPFSRKLDLWNFLDIPRSRLVKYPLLLREILRHTPNDNPDQQHLEEAINIIQGIVAEINTKTGESECRYYKERLLYLEEGQKDSLIDSSRVLCCHGELKNNRGVKLHVFLFQEVLVITRAVTHNEQLCYQLYRQPIPVKDLLLEDLQDGEVRLGGSLRGAFSNNERIKNFFRVSFKNGSQSQTHSLQANDTFNKQQWLNCIRQAKETVLCAAGQAGVLDSEGSFLNPTTGSRELQGETKLEQMDQSDSESDCSMDTSEVSLDCERMEQTDSSCGNSRHGESNV

Variants of: B1
Details: with KRT13, P13646
With R373C the “effect of a mutation on the interaction” value was “with no effect”.

Variants of: B2
Details: with creb3_human CREB3, O43889
Sequence of creb3_human CREB3, O43889 (O43889 whole entry): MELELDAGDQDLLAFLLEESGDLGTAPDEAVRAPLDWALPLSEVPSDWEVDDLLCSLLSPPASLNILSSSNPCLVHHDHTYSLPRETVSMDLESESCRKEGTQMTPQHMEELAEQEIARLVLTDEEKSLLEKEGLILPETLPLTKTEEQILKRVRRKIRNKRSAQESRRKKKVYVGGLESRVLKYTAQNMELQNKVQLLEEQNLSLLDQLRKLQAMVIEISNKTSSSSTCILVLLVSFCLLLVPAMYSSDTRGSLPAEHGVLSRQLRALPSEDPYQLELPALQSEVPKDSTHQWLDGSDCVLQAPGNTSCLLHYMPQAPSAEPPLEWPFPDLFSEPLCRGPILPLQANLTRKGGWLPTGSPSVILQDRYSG
In the case of V42M, the “effect of a mutation on the interaction” value is reported as “with no effect”.

Variants of: B3
Details: with syvm_human VARS2, Q5ST30
In the case of E202K, the “effect of a mutation on the interaction” value is reported as “with no effect”.

Variants of: B4
Details: with magab_human MAGEA11, P43364
I476T was tested, and the “effect of a mutation on the interaction” value was “with no effect”.

Variants of: B5
Details: with tfp11_human TFIP11, Q9UBB9
E202K was tested, and the “effect of a mutation on the interaction” value was “with no effect”.

Variants of: B5
Details: with tfp11_human TFIP11, Q9UBB9
Remark: another data set of the same source
With R373C the “effect of a mutation on the interaction” value was “with no effect”.

Variants of: B6
Details: with tri23_human TRIM23, P36406
Sequence of tri23_human TRIM23, P36406 (P36406 whole entry): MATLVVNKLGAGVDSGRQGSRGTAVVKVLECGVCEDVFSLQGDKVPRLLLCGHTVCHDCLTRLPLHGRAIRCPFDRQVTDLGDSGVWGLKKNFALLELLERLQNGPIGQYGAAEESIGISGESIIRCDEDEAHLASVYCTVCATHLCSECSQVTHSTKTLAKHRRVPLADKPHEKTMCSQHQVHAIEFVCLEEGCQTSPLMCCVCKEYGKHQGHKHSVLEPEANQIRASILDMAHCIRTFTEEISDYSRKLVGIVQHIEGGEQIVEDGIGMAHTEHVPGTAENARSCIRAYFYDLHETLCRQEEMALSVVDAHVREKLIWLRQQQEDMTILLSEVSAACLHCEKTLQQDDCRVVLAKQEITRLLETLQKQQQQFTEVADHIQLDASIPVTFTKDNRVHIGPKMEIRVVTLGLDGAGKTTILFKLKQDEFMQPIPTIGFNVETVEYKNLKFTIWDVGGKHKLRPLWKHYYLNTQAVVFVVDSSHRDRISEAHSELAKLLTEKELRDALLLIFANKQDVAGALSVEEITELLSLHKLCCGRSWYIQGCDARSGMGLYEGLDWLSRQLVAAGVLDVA
With P34S the “effect of a mutation on the interaction” value was “with no effect”.
